Results: patent US7998688B2, “Inhibition of EMT induction in tumor cells by anti-cancer agents” (OSI Pharmaceuticals, LLC, priority 2008, dated 2011)
Read-outs that look alike come from different tables or passages of the source.

B1: TGFβ3: Human recombinant mature TGF-beta3 prepared and purified at OSI Pharmaceuticals; EMT inducer (protein, UniProt P10600 301-412, looked up)
Transforming growth factor …: ALDTNYCFRNLEENCCVRPLYIDFRQDLGWKWVHEPKGYYANFCSGPCPYLRSADTTHSTVLGLYNTLNPEASASPCCVPQDLEPLTILYYVGRTPKVEQLSNMVVKSCKCS
modifications: Transforming growth factor beta-3
notes: Human recombinant mature TGF-beta3 prepared and purified at OSI Pharmaceuticals; EMT inducer

Experiments:
[1] = phase III, first-line, in combination with gemcitabine, pancreatic cancer; cited from earlier work
[2] = phase III, monotherapy, patients with advanced, treatment-refractory NSCLC; cited from earlier work
H358 cells = assay: TaqMan quantitative RT-PCR of ZEB1 and Snail mRNA in TGFβ3-treated H358 cells; type: cell-based, human; conditions: H358 cells without PAK knockdown, 72 h post-TGFβ3, TaqMan (FIG. 4)
Protocol: siRNA knockdown and TGFβ3 treatment: For PAK1 and PAK2 siRNA knockdown in H358 cells, cells were seeded at a density of 5×10^4 cells/well in 6-well dishes. Next day, the cells were transfected using Lipofectamine 2000 (Invitrogen, 11668-019) with 62.5 nM PAK1 (Invitrogen; validated stealth siRNAduplex2, 12936-54) 62.5 nM PAK2 (Invitrogen; validated stealth siRNA duplex 1, 12936-55), 62.5 nM PAK1 & 62.5 nM PAK2 siRNA, or 62.5 nM negative control (Invitrogen, 12935-300) according to the manufacturer's instructions. Transfection reagent was replaced 4 hours post transfection with fresh media. The cells were re-transfected as above 48 hrs after initial transfection. 4 hours post-transfection, the transfection reagent was replaced with fresh media plus or minus 10 nM TGFβ3.
RNA isolation and TaqMan analysis: For TaqMan analysis, total RNA was isolated 72 hours after TGFβ3 treatment of H358 cells (5 and 3 days after first and second siRNA transfections). SuperArray's (SuperArray Bioscience Corp. Frederick, Md. 21704, USA) Total RNA Isolation Kit (GA-013) was used. Subsequently first strand cDNAs were made using RT PCR Array First Strand Kit (SuperArray; C-02). Quantitative-RT-PCR analyses were performed using Taqman Gene Expression Assays (Applied Biosystems, Foster City, Calif.) for PAK1, PAK2, Zeb1, and Snail.

H358 NSCLC cells = assay: TGFβ3 induction of EMT in H358 NSCLC cells (western blot); type: cell-based, human; conditions: TGFβ3 1 nM, 7 days (FIG. 1)
Protocol: FIG. 1: TGFβ3 induces EMT in H358 NSCLC cells. H358 cells were treated with TGFβ3 (1 nM, 7 days) in the presence or absence of the TGFβ receptor kinase inhibitor SB43 1542. Protein extracts were analyzed by western blot using the indicated antibodies.
Western blot analysis: For western blot analysis in H358 cells, cells were harvested 72 hrs after the addition of TGFβ3 addition (5 and 3 days after first and second siRNA transfections). For western blot analysis in HCT116/tet-on/Snail-Flag cells, cells were harvested 24 hours after Dox addition. […] Cell lysates were cleared of insoluble material by centrifugation at 15,000×g for 5 minutes at 4° C. Protein concentrations were measured in the resultant supernatant using the BCA protein analysis kit ([…].; 23225). 15 ug total lysate was used for SDS-PAGE followed by immunoblotting with the appropriate antibodies. The following antibodies were used: E-cadherin (Cell Signaling, Beverly, Mass.; 3195), vimentin (BD Biosciences, San Jose, Calif.; 550513), ErbB3 (Santa Cruz Biotechnology, Santa Cruz, Calif.; sc285), PAK1 (Cell Signaling, 2062), PAK2 (Cell Signaling, 2068), Flag (Sigma, F3165), ZEB1 (Santa Cruz, sc25388), N-Cadherin (Santa Cruz, sc7939), Fibronection (BD, 610078), β-action (Sigma, A1978).

Molecule	survival [1]	disease progression [2]	survival [2]	worsening of lung cancer-related symptoms [2]	Snail mRNA induction by TGFβ3 (H358 cells)	ZEB1 mRNA induction by TGFβ3 (H358 cells)	expression of epithelial markers (E-cadherin and ErbB3) (H358 NSCLC cells)	expression of mesenchymal markers (vimentin, N-cadherin, and fibronectin) (H358 NSCLC cells)	protein levels of the EMT driver ZEB1 (H358 NSCLC cells)
C#Cc1cccc(Nc2ncnc3cc(OCCOC)c(OCCOC)cc23)c1 [erlotinib, [6,7-bis(2-methoxyethoxy)-4-quinazolin-4-yl]-(3-ethynylphenyl) amine]	improves survival	delayed disease progression	significantly prolonged survival	delayed worsening of lung cancer-related symptoms	–	–	–	–	–
B1	–	–	–	–	~2.8 fold	6 fold	downregulating the expression of epithelial markers (E-cadherin and ErbB3)	upregulating that of mesenchymal markers (vimentin, N-cadherin, and fibronectin)	increase in the protein levels of the EMT driver ZEB1
